The target in the experiment is recombinant human IL-18 (human) (UniProt Q14116). In words: cell-based or functional assay.
recombinant human IL-18 (human), sequence (Q14116 37-193 limits assumed): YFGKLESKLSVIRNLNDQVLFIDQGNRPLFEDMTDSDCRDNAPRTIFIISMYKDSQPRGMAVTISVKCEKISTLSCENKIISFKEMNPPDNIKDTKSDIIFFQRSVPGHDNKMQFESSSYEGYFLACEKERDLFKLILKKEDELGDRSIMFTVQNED

For “His6-tagged IL-18BPa transiently expressed in COS7 cells (IL-18BP-His6) (from UniProt O95998 31-194)”, the IFN-γ (ng/ml); bioassay with human IL-18 (20 ng/ml), LPS (2 µg/ml) and murine splenocytes (control 7.5) worked out at 0 ng/mL.

As for “PNGase-treated IL-18BP-His6 (deglycosylated IL-18BPa-His6) (from UniProt O95998 31-194)”, the IFN-γ (ng/ml); bioassay with human IL-18 (20 ng/ml), LPS (2 µg/ml) and murine splenocytes (control 7.5) was found to be 0 ng/mL.

Source of the values: patent US20070081975A1.
